Test results from PMC9578707, “Identification of orphan ligand-receptor relationships using a cell-based CRISPRa enrichment screening platform” (eLife, 2022).

What was measured:
[1] = biological target: T1, growth arrest specific 1 protein (human, UniProt P54826 40-317, biotin (biotinylated in vitro with BirA) where used on beads or as tetramer); assay: SPR; Biacore T100; biotinylated receptor ECD or hit protein captured on a streptavidin chip (~100-200 RU), non-biotinylated secreted ligand as analyte in twofold dilutions; HBS-P+ buffer; 1:1 Langmuir model or equilibrium fit; conditions: both partners purified
T1 construct: growth arrest specific 1, human; also called GAS1; source: Expi293F, purified (Ni-NTA, SEC); not shown: AviTag, C-terminal, kept
T1 sequence (looked up): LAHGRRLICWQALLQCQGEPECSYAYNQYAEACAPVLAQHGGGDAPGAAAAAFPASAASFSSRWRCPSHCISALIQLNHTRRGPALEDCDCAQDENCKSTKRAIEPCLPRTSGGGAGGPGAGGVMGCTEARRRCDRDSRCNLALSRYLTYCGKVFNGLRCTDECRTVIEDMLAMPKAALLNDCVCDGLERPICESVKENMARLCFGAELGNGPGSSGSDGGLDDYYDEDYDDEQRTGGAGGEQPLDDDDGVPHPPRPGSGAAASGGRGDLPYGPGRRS

human PTPRU-ECD [2] = biological target: T2, human PTPRU-ECD (human, UniProt Q92729 19-749, biotin where captured on the streptavidin chip); assay: SPR
T2 chain: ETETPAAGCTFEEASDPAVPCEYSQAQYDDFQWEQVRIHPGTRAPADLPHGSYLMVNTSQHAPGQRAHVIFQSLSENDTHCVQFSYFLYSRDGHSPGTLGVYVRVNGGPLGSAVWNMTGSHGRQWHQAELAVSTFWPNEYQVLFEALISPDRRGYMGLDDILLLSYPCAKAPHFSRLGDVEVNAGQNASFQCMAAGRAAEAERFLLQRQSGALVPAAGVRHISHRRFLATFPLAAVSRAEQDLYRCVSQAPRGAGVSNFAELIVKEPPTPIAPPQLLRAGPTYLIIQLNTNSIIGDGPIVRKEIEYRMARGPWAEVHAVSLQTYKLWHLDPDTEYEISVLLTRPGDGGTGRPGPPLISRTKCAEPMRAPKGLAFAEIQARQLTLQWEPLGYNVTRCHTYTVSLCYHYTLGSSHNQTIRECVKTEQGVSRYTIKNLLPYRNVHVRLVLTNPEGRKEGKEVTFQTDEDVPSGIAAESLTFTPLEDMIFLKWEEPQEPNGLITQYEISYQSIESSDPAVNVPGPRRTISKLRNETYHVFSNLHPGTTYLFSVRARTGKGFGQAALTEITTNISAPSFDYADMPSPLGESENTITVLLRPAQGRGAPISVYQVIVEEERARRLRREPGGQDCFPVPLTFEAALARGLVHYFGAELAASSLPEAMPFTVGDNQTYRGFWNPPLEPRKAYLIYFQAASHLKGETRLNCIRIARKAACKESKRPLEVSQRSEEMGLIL

human PTPRU-ECD [3] = biological target: T3, human PTPRU-ECD (human, UniProt Q92729 19-749, biotin where captured on the streptavidin chip); assay: SPR; Biacore T100; biotinylated receptor ECD or hit protein captured on a streptavidin chip (~100-200 RU), non-biotinylated secreted ligand as analyte in twofold dilutions; HBS-P+ buffer; 1:1 Langmuir model or equilibrium fit; conditions: both partners purified
T3 construct: PTPRU, human, extracellular domain; construct of the ECD is not described; source: Expi293F, purified (Ni-NTA, SEC)
T3 sequence (looked up): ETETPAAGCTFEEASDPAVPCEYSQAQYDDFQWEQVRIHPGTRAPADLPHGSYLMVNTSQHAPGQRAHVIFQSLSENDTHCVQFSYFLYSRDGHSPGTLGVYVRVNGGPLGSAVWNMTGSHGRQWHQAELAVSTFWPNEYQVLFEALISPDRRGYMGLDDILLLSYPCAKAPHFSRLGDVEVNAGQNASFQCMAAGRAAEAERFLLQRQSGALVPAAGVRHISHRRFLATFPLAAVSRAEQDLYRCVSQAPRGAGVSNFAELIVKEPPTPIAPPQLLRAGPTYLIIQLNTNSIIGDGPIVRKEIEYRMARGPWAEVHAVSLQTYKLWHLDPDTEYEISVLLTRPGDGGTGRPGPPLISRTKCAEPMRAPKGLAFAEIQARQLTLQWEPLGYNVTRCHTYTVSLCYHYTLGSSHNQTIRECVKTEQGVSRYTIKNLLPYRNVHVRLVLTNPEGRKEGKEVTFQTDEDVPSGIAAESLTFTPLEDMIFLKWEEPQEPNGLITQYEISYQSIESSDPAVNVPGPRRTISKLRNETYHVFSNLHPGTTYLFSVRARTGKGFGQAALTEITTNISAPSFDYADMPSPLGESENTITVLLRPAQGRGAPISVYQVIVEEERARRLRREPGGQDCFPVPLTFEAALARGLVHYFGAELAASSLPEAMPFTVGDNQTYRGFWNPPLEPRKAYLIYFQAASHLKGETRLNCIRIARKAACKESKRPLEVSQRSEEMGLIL

[4] = biological target: T4, PTPRU-ECD (receptor protein tyrosine phosphatase U, extracellular domain) (human, UniProt Q92729 19-749, biotin (BirA biotinylation; captured on streptavidin chip)); assay: SPR; Biacore T100; biotinylated ligand captured on a streptavidin (SA) Series S chip (~100-200 RU); non-biotinylated analyte in twofold dilutions in HBS-P+; 60 s injection at 30 ul/min, 240 s dissociation; regeneration 2 x 10 sec 2M MgCl2; kinetic fit with a 1:1 binding (Langmuir) model; conditions: both partners purified
T4 construct: receptor-type protein tyrosine phosphatase U (PTPRU, R2B subfamily), human, extracellular domain; source: Expi293F, purified (Ni-NTA, SEC), biotinylated in vitro with BirA
T4 sequence (looked up): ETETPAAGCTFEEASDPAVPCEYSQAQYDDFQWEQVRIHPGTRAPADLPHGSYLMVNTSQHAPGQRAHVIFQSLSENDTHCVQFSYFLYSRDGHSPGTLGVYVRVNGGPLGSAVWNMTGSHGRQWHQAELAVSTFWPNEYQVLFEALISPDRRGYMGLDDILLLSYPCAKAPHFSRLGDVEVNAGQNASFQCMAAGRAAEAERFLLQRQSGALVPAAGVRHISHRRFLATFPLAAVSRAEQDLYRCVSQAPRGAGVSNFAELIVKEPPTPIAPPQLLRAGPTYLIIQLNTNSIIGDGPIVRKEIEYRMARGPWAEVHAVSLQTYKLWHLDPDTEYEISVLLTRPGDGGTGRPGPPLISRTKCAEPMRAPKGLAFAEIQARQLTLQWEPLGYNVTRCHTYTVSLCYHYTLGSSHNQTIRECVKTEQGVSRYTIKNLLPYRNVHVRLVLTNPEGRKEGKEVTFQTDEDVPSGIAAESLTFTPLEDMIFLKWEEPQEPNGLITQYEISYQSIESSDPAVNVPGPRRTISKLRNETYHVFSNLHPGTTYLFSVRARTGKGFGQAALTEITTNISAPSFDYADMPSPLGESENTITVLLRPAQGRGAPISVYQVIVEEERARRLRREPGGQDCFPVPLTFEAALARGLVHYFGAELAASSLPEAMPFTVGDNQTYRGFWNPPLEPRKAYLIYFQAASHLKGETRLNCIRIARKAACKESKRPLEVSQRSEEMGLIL

B1: PTPRA-ECD (domain or fragment, human, UniProt P18433 20-151, looked up)
chain: NNATTVAPSVGITRLINSSTAEPVKEEAKTSNPTSSLTSLSVAPTFSPNITLGPTYLTTVNSSDSDNGTTRTASTNSIGITISPNGTWLPDNQFTDARTEPWEGNSSTAATTPETFPPSGNSDSKDRRDETP
modifications: biotin (captured on the streptavidin chip)
notes: PTPRA, human, extracellular domain; construct of the ECD is not described; source: Expi293F, purified (Ni-NTA, SEC)
[1]
  Kd: ~1000 nM

B2: Osteocrin (ligand, human, UniProt P61366 28-133, looked up)
chain: VDVTTTEAFDSGVIDVQSTPTVREEKSATDLTAKLLLLDELVSLENDVIETKKKRSFSGFGSPLDRLSAGSVDHKGKQRKVVDHPKRRFGIPMDRIGRNRLSNSRG
modifications: biotin (biotinylated in vitro with BirA) where used on beads
notes: Osteocrin, human; also called OSTN; Musclin; source: Expi293F, purified (Ni-NTA, SEC); not shown: AviTag, C-terminal, kept
Human PTPRU-ECD [2]
  koff: 0.0036 s⁻¹
Human PTPRU-ECD [3]
  Kd: ~12 nM

B3: Osteocrin (OSTN) (ligand, human, UniProt P61366 28-133, looked up)
chain: VDVTTTEAFDSGVIDVQSTPTVREEKSATDLTAKLLLLDELVSLENDVIETKKKRSFSGFGSPLDRLSAGSVDHKGKQRKVVDHPKRRFGIPMDRIGRNRLSNSRG
notes: Osteocrin (OSTN, Musclin), human; also called Musclin; source: Expi293F, purified (Ni-NTA, SEC), not biotinylated (SPR analyte)
[4]
  Kd: 12.7 nM
  koff: 0.00368 s⁻¹
  kon: 290000 M⁻¹ s⁻¹
